According to US20230192857A1 (published 2023):
Where two headings read alike, the source gives them in different places. Non-standard residues stand in square brackets, D forms with d. No end group written: not given here. pY = N[C@@H](Cc1ccc(OP(=O)(O)O)cc1)C(=O)O

Key:
[1] = molecular target: T1, hCIS-SH2-BC complex (recombinant trimeric complex of human GST-CIS-SH2 construct with Elongins B and C) (UniProt Q9NSE2 66-258; Q15370 1-118; Q15369 17-112); assay: ITC
[2] = molecular target: T1, hCIS-SH2-BC complex (recombinant …); assay: ITC; remark: listed apart in the source

Row | Binder | Kd [1] [nM] | Kd [2] [nM]
1 | EIEACQV[pY]FTYDPYSE [phosphopeptide corresponding to Tyr355 within the IL-2Rβ (printed 'IL-2R13') cytoplasmic domain] | 940 | 940
2 | LSGEDDA[pY]CTFPSRDD [phosphopeptide corresponding to Tyr392 within the IL-2Rβ (printed 'IL-2R13') cytoplasmic domain] | 1800 | 1800
3 | VYFTYDP[pY]SEEDPDEG [phosphopeptide corresponding to Tyr361 within the IL-2Rβ (printed 'IL-2R13') cytoplasmic domain] | 1500 | 1500
